Data reported in publication PMC8894971, “ENB1 encodes a cellulose synthase 5 that directs synthesis of cell wall ingrowths in maize basal endosperm transfer cells”.

T1: MRP1 (His-TF-MRP1) (Zea mays, UniProt K7V5I7 1-241)
T1 sequence: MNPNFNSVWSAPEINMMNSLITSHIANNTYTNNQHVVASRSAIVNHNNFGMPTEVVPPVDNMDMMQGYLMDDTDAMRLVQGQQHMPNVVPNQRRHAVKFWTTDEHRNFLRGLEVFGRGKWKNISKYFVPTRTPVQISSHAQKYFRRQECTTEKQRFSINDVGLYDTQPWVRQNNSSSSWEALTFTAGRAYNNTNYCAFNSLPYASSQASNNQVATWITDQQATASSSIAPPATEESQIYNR

B1: ENB1 promoter Mu probe (dsDNA)
DNA 1: CTACTTATGAGCGACAGAGCGATGTGACTA
DNA 2: TAGTCACATCGCTCTGTCGCTCATAAGTAG
B2: ENB1 promoter WT probe (dsDNA)
DNA 1: CTACTTATTATCTACATATCTATGTGACTA
DNA 2: TAGTCACATAGATATGTAGATAATAAGTAG

Experiments:
[1] = target: T1, MRP1 (His-TF-MRP1); test: EMSA; labeled Mu probe; no shifted band; LightShift EMSA kit standard protocol, ~200 ng protein, 5 ng biotin probe, 6% native polyacrylamide gel; buffer, salt, pH and temperature not stated; conditions: protein: recombinant; tags: N-terminal His-TF (trigger factor, pCold-TF); blunt (duplex implied)
[2] = target: T1, MRP1 (His-TF-MRP1); test: EMSA; LightShift EMSA kit standard protocol, ~200 ng protein, 5 ng biotin probe, 6% native polyacrylamide gel; buffer, salt, pH and temperature not stated; conditions: protein: recombinant; tags: N-terminal His-TF (trigger factor, pCold-TF); blunt (duplex implied)

| Binder | binding result [1] | binding result [2] |
| --- | --- | --- |
| B1 | no binding |  |
| B2 |  | binds |
